# Data reported in IntAct's records for PubMed 16865698.
# B1: Mothers against decapentaplegic homolog 4 (Homo sapiens), Q13485 (parent)
# chain: MDNMSITNTPTSNDACLSIVHSLMCHRQGGESETFAKRAIESLVKKLKEKKDELDSLITAITTNGAHPSKCVTIQRTLDGRLQVAGRKGFPHVIYARLWRWPDLHKNELKHVKYCQYAFDLKCDSVCVNPYHYERVVSPGIDLSGLTLQSNAPSSMMVKDEYVHDFEGQPSLSTEGHSIQTIQHPPSNRASTETYSTPALLAPSESNATSTANFPNIPVASTSQPASILGGSHSEGLLQIASGPQPGQQQNGFTGQPATYHHNSTTTWTGSRTAPYTPNLPHHQNGHLQHHPPMPPHPGHYWPVHNELAFQPPISNHPAPEYWCSIAYFEMDVQVGETFKVPSSCPIVTVDGYVDPSGGDRFCLGQLSNVHRTEAIERARLHIGKGVQLECKGEGDVWVRCLSDHAVFVQSYYLDREAGRAPGDAVHKIYPSAYIKVFDLRQCHRQMQQQAATAQAAAAAQAAAVAGNIPGPGSVGGIAPAISLSAAAGIGVDDLRRLCILRMSFVKGWGPDYPRQSIKETPCWIEIHLHRALQLLDEVLHTMPIADPQPLD
# Variants of: B1
# Details: with fbw1a_human BTRC
row,Variant,effect of a mutation on the interaction
1,P102L,with no effect

# Variants of: B1
# Details: with skp2_human SKP2, Q13309
# skp2_human SKP2, Q13309, sequence (Q13309 whole entry): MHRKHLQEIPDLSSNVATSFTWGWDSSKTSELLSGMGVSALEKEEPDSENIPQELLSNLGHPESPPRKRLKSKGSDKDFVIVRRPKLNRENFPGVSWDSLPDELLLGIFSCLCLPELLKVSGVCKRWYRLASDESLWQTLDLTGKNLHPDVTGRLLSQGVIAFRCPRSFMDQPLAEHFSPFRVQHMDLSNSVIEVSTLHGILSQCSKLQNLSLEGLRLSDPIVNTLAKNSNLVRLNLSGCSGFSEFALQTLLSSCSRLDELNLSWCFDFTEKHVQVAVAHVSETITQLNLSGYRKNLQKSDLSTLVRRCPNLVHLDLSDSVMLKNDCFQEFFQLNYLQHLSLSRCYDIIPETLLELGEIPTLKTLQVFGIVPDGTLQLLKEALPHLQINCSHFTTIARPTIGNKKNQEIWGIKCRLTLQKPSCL
row,Variant,effect of a mutation on the interaction
1,P102L,disrupting interaction strength
